The values below come from publication doi:10.1101/2024.11.03.621760 (bioRxiv, 2024).

The target of test [1] is prefusion MERS-CoV EMC/2012 S ectodomain trimer (MERS-CoV-2P S) (MERS-CoV EMC/2012).
The target is the same in test [2]. Description: SPR.

B1: nHALC3_919_cb3 (designed binder)
chain: MSGSPVKRFVREVLEEAEEAYEKGDRRQFEELLWLAEWAARDANDEELEEEIREFEKEVKGSGSEELLEELRELLERLQELLELIEQGKITPEQLREAIALLIEVLQILYEALRELAEQLQRLREELGGS
In test [1], B1 yielded a Table S6, nHALC3 919: neutralisation IC50, EMC/2012 S VSV pseudovirus, exp 1 of 5.9 nM and a Table S6, nHALC3 919: neutralisation IC50, EMC/2012 S VSV pseudovirus, exp 2 of 1.7 nM. Besides, in test [2], the Kd turned out to be 0.11 nM, the koff was determined as 6e-05 s⁻¹ and the kon came to 560000 M⁻¹ s⁻¹.

B2: cHALC3_919_cb3 (designed binder)
chain: MSGSEELLEELRELLERLQELLELIEQGKITPEQLREAIALLIEVLQILYEALRELAEQLQRLREELGGSGSPVKRFVREVLEEAEEAYEKGDRRQFEELLWLAEWAARDANDEELEEEIREFEKEVKGS
Take B2: in test [1], the Table S6, cHALC3 919: neutralisation IC50, EMC/2012 S VSV pseudovirus, exp 1 came out at 15.3 nM and the Table S6, cHALC3 919: neutralisation IC50, EMC/2012 S VSV pseudovirus, exp 2 came out at 5 nM.

As a reminder, the Kd is the constant that tells how readily two partners part at equilibrium. A word on the koff: it is a measure of how fast the partners let go of each other. Lower therefore signals slow dissociation. The term kon denotes a measure of how fast the partners come together.
